Experimental findings from patent publication US20150232562A1 (Ablynx, published 2015) are described below.

Where only a bound is given, the exact number is not on record here.

The labels stand for the following.
B1: 30H9 (VHH)
VHH: EVQLVESGGSLVQPGGSLRLSCAASGFTFDDYAMTWVRQAPGKGLEWVSSINWSGTHTDYTDSVKGRFTISRNNANNTLYLQMNSLKSEDTAVYYCAKNWGDAGTTWFEKSGSAGQGTQVTVSS
notes: C-term myc-His6 tag
B2: 17E3 (VHH)
VHH: EVQLVESGGGLVQAGGSLRLSCVASKMTFMRYTMGWYRQAPGKQRDLVASIDSSGGTNYADSVKGRFTISRDNAKNTVYLEMNSLTPEDTAVYYCNQGWKIVPTDRTGHGTQVTVSS
notes: C-term myc-His6 tag
B3: 15G8 (VHH)
VHH: EVQLVESGGGLVQPGGSLKLSCVASGFSLDDYGMTWVRQAPGKGLEWVSSINWNGTHTDYAYSVKGRFTISRDNAKNTLFLQMNSLTPENTAVYYCNQGWKILPAERRGHGTQVTVSS
notes: C-term myc-His6 tag
B4: 2H3 (VHH)
VHH: EVQLVESGGGLVQPGGSLRLSCVASGFSLDDYGMTWVRQAPGKGLEWVSSINWSGTHTDYADSVKGRFTISRDNAKNTLFLQMNSLTPEDTAVYYCNQGWKIIPTDRRGHGTQVTVSS
notes: C-term myc-His6 tag
B5: 17D2 (VHH)
VHH: EVQLVESGGGLVQPGGSLRLSCVASGFSLDDYGMTWVRQAPGKGLEWVSSINWSGTHTDYADSVKGRFTISRDNAKNTLFLQMNSLRSEDTAVYYCNQGWKIVPTDRGSHGTQVTVSS
notes: C-term myc-His6 tag
B6: 17B8 (VHH)
VHH: EVQLVESGGGLVQPGGSLRLSCVASGFSLDDYGMTWVRQAPGKGLEWVSSINWSGTHTDYADSVKGRFTISRDNAKNTLFLQMNSLTPEDTAVYYCNQGWKILPAERRGHGTQVTVSS
notes: C-term myc-His6 tag
B7: 17E4 (VHH)
VHH: EVQLVESGGGLVQPGGSLRLSCVASGFSLDDYGMTWVRQAPGKGLEWVSSINWSGTHTDYADSVKGRFVISRDNAKNTLFLQMNSLSPEDTAVYYCNQGWKIIPTDRRGHGTQVTVSS
notes: C-term myc-His6 tag
B8: 17H3 (VHH)
VHH: EVQLMESGGGLVQPGGSLRLSCVASGFSLDDYGMTWVRQAPGKGLEWVSSINWSGTHTDYADSVKGRFTISRDNAKNTLFLQMNSLRSEDTAVYYCNQGWKIVPTDRGGHGTQVTVSS
notes: C-term myc-His6 tag
B9: 17H4 (VHH)
VHH: EVQLVESGGGLVQPGGSLRLSCVASGFSLINYAMTWVRQAPGKGLEWVSSINWSGTHTDYADSVKGRFTISRDNAKNTLFLHMNNLSPEDTAVYYCGQGWKIHPADRGGHGTQVTVSS
notes: C-term myc-His6 tag
B10: 13B10 (VHH)
VHH: EVQLVESGGGLVQPGGSLRLSCVASGFSLDDYGMTWVRQAPGKGFEWVSSINWSGTHTDYADSVKGRFTISRDNAKNTLFLQMNSLSPEDTAVYYCNQGWKILPTNRGSHGTQVTVSS
notes: C-term myc-His6 tag
B11: 15D1 (VHH)
VHH: EVQLVESGGGLVQPGGSLRLSCVASGFSLDDYAMTWVRQAPGKGLEWVSSINWSGTHTDYADSVKGRFTISRDNAKNTLFLQMNSLNPEDTAVYYCNQGWKVWPTDRGTHGTQVTVSS
notes: C-term myc-His6 tag
B12: 38C6 (VHH)
VHH: EVQLVESGGGLVQPGGSLRLSCVGSGFSLDDYAMTWVRQAPGKGLEWVSSINWSGTHTDYADSVKGRFTISRDNAKNTLFLQMNSLSPEDTAVYYCNQGWKIRPTIPMGHGTQVTVSS
notes: C-term myc-His6 tag
B13: 15C11 (VHH)
VHH: EVQLVESGGGLVQPGGSLRLSCVASGFSLDDYGMTWVRQAPGKGLEWVSSINWSGTHTDYADSVKGRFTISRDNAKNTLFLQMNSLTPEDTAVYYCNQGWKILPAERRGHGTPVTVSS
notes: C-term myc-His6 tag
B14: 29H2 (VHH)
VHH: EVQLVESGGGLVQPGGSLRLSCVASGFSLDDYGMTWVRQAPGKGLEWVSSINWSGTHTDYADSVKGRFTISRDNAKNTLFLQMNNLTPEDTAVYYCNQGWKIIPTDRRGHGTQVTVSS
notes: C-term myc-His6 tag
B15: 2E3 (VHH)
VHH: EVQLVESGGGLVQPGGSLRLSCVASGFSLDDYGMTWVRQAPGKGLEWVSSINWSGTHTDYADSVKGRFTISRDNAKNTLFLQMNSLSPEDTAVYYCNQGWKILPTNRGSHGTQVTVSS
notes: C-term myc-His6 tag
B16: 15C5 (VHH)
VHH: EVQLVESGGGLVQPGGSLKLSCVASGFSLDDYGMTWVRQAPGKGLEWVSSINWNVTHTDYAYSVKGRFTISRDNAKNTLFLQMNSLTPEDTAVYYCNQGWKIIPTDRRGHGTQVTVSS
notes: C-term myc-His6 tag
B17: 27G8 (VHH)
VHH: EVQLVESGGGLVQPGGSLRLSCVASGFSLDDYGMTWVRQAPGKGLEWVSSINWSGTHTDYADSVKGRFTISRDNAKNTLFLQMNSLTPEDTAVYYCNQGWKILPAERRGHGTQVTVSS
notes: C-term myc-His6 tag
B18: 17A2 (VHH)
VHH: EVQLVESGGGLVQPGGSLRLSCVASGFSLDDYAMTWVRQAPGKGLEWVSSINWSGTHTDYADSVKGRFTISRDNAKNTLFLQMNSLSPEDTAVYYCNKGWKVWPTDRGTHGTQVTVSS
notes: C-term myc-His6 tag
B19: 118N121_A1_4_OK/1-127 (VHH)
VHH: EVQLVESGGGFVQTGGSPRLSCAASGRSFSEYAAAWFRQSPGKERDLVAGIMWDGRSLFYADSVKGRFTISRDNAKNTLHLQMNSLKPEDTAVYYCAYHKTPYTTLELNRPHAFGSWGQGTQVTVSS
notes: C-term myc-His6 tag
B20: 5G4 (VHH)
VHH: EVQLVESGGGLVQPGGSLTLSCAGSGFIFDDYAMSWVRQAPGKGLEWVSSINWSGSHRNYADSVKGRFTISRDNAKKTLYLQMNSLKSEDTAVYYCATGWQSTTKNQNYWGQGTQVTVSS
notes: C-term myc-His6 tag
B21: 15B7 (VHH)
VHH: EVQLVESGGGLVQPGGSLKLSCAASGFIFDDYAMSWVRQAPGKGLEWVSAINWSGSHRNYADSVKGRFTISRDNAKKTVYLQMNSLQSEDTAVYYCGTGWQSTTKSQGYWGQGTQVTVSS
notes: C-term myc-His6 tag
B22: 15G7 (VHH)
VHH: EVQLVESGGGLVQPGGSLRLSCAASGFIFDDYAMSWVRQAPGKGLEWVSAINWSGTHRNYADSVKGRFTISRDNNKKTVYLQMNSLKSEDTAVYYCATGWQSTTKNQGYWGQGTQVTVSS
notes: C-term myc-His6 tag

For the assay, the target named is T1, Epidermal Growth Factor Receptor 2 (HER2) (human, UniProt P04626 23-1255).
T1 construct: whole, on cells; the cell line is named under assay; also called ErbB-2; ERBB2
As to the kind of experiment: FMAT competition on SKBR3 cells, periplasmic extract.
On to B1, for which the “% blocking of Herceptin binding” value is above 90%. As for B2, the “% blocking of Herceptin binding” value is above 90%.

Take B3: the “% blocking of Herceptin binding” value was above 90%. Consider B4, for which the “% blocking of Herceptin binding” value was above 90%.

For the molecule B5, the “% blocking of Herceptin binding” value is above 90%. With B6, the “% blocking of Herceptin binding” value was above 90%. The value for B7 was above 90%. Turning to B8, the “% blocking of Herceptin binding” value was above 90%.

Take B9: the “% blocking of Herceptin binding” value was above 90%. As to B10, the “% blocking of Herceptin binding” value was above 90%. For the molecule B11, the “% blocking of Herceptin binding” value was above 90%. Turning to B12, the “% blocking of Herceptin binding” value is above 90%. For the molecule B13, the “% blocking of Herceptin binding” value was above 90%. Next, B14: above 90%. The value for B15 was above 90%; that for B16 was above 90%. On to B17, for which the “% blocking of Herceptin binding” value is above 90%. Turning to B18, the “% blocking of Herceptin binding” value was above 90%.

B19: the “% blocking of Herceptin binding” value was above 90%. For B20, the “% blocking of Herceptin binding” value was above 90%.

As to B21, the “% blocking of Herceptin binding” value was above 90%. With B22, the “% blocking of Herceptin binding” value is above 90%.
